From publication doi:10.1101/2023.12.12.570754

Legend:
[1] = target: Ku70-Ku80 heterodimer deleted of its C-terminal regions (Ku70 1-544, Ku80 1-551) (human) (UniProt P12956); experiment: ITC
[2] = target: full-length human Ku heterodimer (Ku70 1-609, Ku80 1-732) (human) (UniProt P12956); experiment: ITC

Question: Which results are given for “RAG2c peptide, containing motifs 1 and 2 of the RAG2 C-terminus (RAG2-KBM)”?
Answer: Kd [1]: 0.84 µM; fold weaker affinity than with the 42 bp DNA [1]: 7 fold; Kd [2]: 1.18 µM
